In publication PMC10132759 one finds Kd data, which are given here for five substances.

The target of the assay is GAS7b-Avitag, biotinylated (mouse) (UniProt Q60780). Kind of assay: BLI; BLItz; 0.1 μM biotinylated Avi-tagged GAS7b, Nck or WISH captured on streptavidin (SAX) biosensors; 0.25 μM WASP or its mutants as analyte; 10 mM tris-HCl pH 7.5, 150 mM NaCl, 1 mM EDTA; local fit to a 1:1 model, Kd = Koff/Kon; n = 3. A general note: BLI is a label-free optical method that tracks binding on a fibre tip over time.

N-WASP without a tag, sequence (Q95107 whole entry): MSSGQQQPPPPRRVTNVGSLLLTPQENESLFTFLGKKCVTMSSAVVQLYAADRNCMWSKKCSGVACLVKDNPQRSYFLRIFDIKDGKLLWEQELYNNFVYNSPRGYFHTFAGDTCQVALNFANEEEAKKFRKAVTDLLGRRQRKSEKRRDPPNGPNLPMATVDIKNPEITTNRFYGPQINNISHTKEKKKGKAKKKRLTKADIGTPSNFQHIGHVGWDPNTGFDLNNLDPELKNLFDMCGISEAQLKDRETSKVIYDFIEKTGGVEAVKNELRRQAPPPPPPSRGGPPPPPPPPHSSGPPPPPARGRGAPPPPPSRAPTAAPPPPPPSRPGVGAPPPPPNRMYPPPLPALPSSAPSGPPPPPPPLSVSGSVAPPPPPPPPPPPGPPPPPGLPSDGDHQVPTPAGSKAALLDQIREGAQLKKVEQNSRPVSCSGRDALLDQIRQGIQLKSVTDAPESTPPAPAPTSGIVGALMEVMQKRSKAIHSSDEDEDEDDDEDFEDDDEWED

Turning to “N-WASP without a tag (from UniProt Q95107 1-505) (natural protein)”, the Kd turned out to be 4.23 nM.
For the substance “WASP (FLAG tag) (from UniProt P42768 1-502) (natural protein)”, the Kd was found to be 4.11 nM.
As to “WASP P359T (FLAG tag) (from UniProt P42768 1-502) (natural protein)”, the Kd worked out at 6.89 nM.
The substance “WASP P373S (FLAG tag) (from UniProt P42768 1-502) (natural protein)” returned a Kd of 15 nM.
In turn, “WASP S339Y (FLAG tag) (from UniProt P42768 1-502) (natural protein)” gave a Kd of 7.13 nM.

The Kd is the equilibrium constant for the complex coming apart. A higher Kd goes with a looser complex.
